In patent publication US20230183354A1 (IMMIOS HOLDING B V, published 2023):

Biological target: T1, human CD103 (integrin Alpha-E) / human integrin Beta-7 heterodimer on cells (human, UniProt P38570 19-1179; P26010 20-798)
T1 construct: The same id is used for native CD103 on human CD103+CD8+ T cells (tumor digests, TGF-beta induced T cells); the assay field tells which cells; also called hCD103/hBeta7; CHO.K1-hCD103/hBeta7
Assay: binding of 89Zr-labeled mAb to CHO.K1-hCD103/hBeta7 cells, bound activity in counts

T1 sequence (P38570 19-1179 limits assumed, chain 1 of 2): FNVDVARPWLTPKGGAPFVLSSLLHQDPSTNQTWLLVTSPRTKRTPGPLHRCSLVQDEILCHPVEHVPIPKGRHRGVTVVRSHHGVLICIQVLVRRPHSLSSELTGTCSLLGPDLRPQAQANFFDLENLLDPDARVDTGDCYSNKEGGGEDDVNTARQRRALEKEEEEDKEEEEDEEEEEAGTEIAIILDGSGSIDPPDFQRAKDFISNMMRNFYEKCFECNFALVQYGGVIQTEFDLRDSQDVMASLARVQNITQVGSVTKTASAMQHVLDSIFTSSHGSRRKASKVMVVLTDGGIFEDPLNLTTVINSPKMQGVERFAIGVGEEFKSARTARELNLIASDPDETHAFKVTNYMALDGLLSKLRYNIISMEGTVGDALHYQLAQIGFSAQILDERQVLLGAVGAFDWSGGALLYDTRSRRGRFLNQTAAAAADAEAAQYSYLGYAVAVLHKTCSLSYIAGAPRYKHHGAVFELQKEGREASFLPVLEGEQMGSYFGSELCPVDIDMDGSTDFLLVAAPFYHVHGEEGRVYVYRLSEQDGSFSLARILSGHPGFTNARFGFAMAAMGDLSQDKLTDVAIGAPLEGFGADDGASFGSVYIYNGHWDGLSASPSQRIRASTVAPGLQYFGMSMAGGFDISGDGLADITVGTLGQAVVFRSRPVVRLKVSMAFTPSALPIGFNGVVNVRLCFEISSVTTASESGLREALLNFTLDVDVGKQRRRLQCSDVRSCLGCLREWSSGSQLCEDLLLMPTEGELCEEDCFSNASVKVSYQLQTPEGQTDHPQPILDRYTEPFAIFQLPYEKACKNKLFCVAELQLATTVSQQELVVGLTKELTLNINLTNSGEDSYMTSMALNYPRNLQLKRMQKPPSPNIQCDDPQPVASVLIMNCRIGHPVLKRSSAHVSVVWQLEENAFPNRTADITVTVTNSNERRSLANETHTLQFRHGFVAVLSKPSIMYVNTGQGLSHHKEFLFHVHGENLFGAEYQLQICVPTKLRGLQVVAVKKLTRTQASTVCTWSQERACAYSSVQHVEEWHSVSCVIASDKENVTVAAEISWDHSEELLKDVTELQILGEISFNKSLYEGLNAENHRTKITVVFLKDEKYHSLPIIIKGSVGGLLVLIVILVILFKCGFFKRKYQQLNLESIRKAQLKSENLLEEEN
T1 sequence (P26010 20-798 limits assumed, chain 2 of 2): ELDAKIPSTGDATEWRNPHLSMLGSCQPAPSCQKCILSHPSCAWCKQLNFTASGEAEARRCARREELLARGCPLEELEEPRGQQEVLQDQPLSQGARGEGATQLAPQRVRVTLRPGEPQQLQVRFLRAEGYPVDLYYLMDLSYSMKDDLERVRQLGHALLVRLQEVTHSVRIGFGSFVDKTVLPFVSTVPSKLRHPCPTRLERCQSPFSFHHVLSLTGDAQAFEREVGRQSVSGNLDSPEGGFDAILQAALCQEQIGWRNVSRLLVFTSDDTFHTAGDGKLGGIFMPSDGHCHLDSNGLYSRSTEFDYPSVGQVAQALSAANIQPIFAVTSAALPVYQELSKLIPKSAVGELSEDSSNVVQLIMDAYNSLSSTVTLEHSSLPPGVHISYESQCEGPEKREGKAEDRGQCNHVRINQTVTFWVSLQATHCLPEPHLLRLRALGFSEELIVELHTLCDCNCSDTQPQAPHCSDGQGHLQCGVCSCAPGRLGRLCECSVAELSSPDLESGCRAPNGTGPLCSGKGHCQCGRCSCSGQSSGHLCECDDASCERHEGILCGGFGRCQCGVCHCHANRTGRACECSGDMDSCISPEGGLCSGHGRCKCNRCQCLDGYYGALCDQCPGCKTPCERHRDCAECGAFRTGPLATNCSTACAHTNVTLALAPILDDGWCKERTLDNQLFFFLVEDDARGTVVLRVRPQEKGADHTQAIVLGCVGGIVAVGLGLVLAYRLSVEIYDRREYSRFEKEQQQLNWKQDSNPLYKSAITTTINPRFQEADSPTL

B1: hCD103.05A (antibody, mouse IgG1, V domains shown)
VH: EVQLQQSGPELEKPGASAKISCKASGYSFTGYNMNWVKQSNGKSLEWIGNIDPYYGGTSYNQKFKGKATLTVDKSSSTAYMQLKSLTSEDSAVYYCARSFYGYDAGSPYNYAMDYWGQGTPVTVSP
VL: DIVMTQSHKFMSTSVGDRVSITCKASQDVGTFVAWYQQKPGQSPKLLIYWASTRHTGVPDRFTGSGSGTDFTLTISNVQSEDLADYFCHQYSSYPYTFGGGTQLEIK
notes: Also tested labelled with AF647, conjugated with Df and labelled with 89Zr; these are written under this molecule; also called clone 05A; hCD103.05 mAb
  EC50 (read off the curve): ~0.4 µg/mL
